In one series the target is A. niger Fdc1 (Aspergillus niger, UniProt A2QHE5). The following applies: purified and crystallized in the dark.
The next series has as its system O=C(O)/C=C/c1ccccc1. As to the kind of experiment: purified protein. The following applies: 50 mM KCl, 50 mM NaPi, pH 6, 25 °C, prFMN holo-enzyme.
Substrate in the series “purified protein”: O=C(O)/C=C/c1ccccc1
As to the kind of experiment: purified protein. The following applies: 50 mM KCl, 50 mM NaPi, pH 6, 25 °C, prFMN holo-enzyme. This is another data set of the same source.

The Km is the substrate concentration at which the rate is half of its maximum. A word on the kcat: it is the maximal rate divided by the concentration of active sites.

As for `Cc1cc2c3c(c1C)C(C)(C)CC=[N+]3c1c(nc([O-])[nH]c1=O)N2C[C@H](O)[C@H](O)[C@H](O)COP(=O)(O)O` [prFMN^iminium], on A. niger Fdc1, the crystal structure result was “the prFMN cofactor is exclusively in the iminium form”.

In the case of “A. niger Fdc1 (Aspergillus niger CBS 513.88)”, in the series on O=C(O)/C=C/c1ccccc1, the Km was found to be 10.0 ± 0.6 µM and the kcat was determined as 9.4 ± 0.1 s⁻¹.

As for “A. niger Fdc1 (Aspergillus niger CBS 513.88; E282D)”, in the series on O=C(O)/C=C/c1ccccc1, the Michaelis constant (Km) stood at 50 ± 10 µM and the kcat is 0.63 ± 0.04 s⁻¹.

B1: S. cerevisiae Fdc1 (Saccharomyces cerevisiae S288C) (protein)
chain: MRKLNPALEFRDFIQVLKDEDDLIEITEEIDPNLEVGAIMRKAYESHLPAPLFKNLKGASKDLFSILGCPAGLRSKEKGDHGRIAHHLGLDPKTTIKEIIDYLLECKEKEPLPPITVPVSSAPCKTHILSEEKIHLQSLPTPYLHVSDGGKYLQTYGMWILQTPDKKWTNWSIARGMVVDDKHITGLVIKPQHIRQIADSWAAIGKANEIPFALCFGVPPAAILVSSMPIPEGVSESDYVGAILGESVPVVKCETNDLMVPATSEMVFEGTLSLTDTHLEGPFGEMHGYVFKSQGHPCPLYTVKAMSYRDNAILPVSNPGLCTDETHTLIGSLVATEAKELAIESGLPILDAFMPYEAQALWLILKVDLKGLQALKTTPEEFCKKVGDIYFRTKVGFIVHEIILVADDIDIFNFKEVIWAYVTRHTPVADQMAFDDVTSFPLAPFVSQSSRSKTMKGGKCVTNCIFRQQYERSFDYITCNFEKGYPKGLVDKVNENWKRYGYK
B1: in the series “purified protein”, the Michaelis constant (Km) was determined as 25.5 ± 3.6 µM and the kcat was found to be 10.5 ± 0.4 s⁻¹.

B2: S. cerevisiae Fdc1 (Saccharomyces cerevisiae S288C; E280D) (protein)
chain: MRKLNPALEFRDFIQVLKDEDDLIEITEEIDPNLEVGAIMRKAYESHLPAPLFKNLKGASKDLFSILGCPAGLRSKEKGDHGRIAHHLGLDPKTTIKEIIDYLLECKEKEPLPPITVPVSSAPCKTHILSEEKIHLQSLPTPYLHVSDGGKYLQTYGMWILQTPDKKWTNWSIARGMVVDDKHITGLVIKPQHIRQIADSWAAIGKANEIPFALCFGVPPAAILVSSMPIPEGVSESDYVGAILGESVPVVKCETNDLMVPATSEMVFEGTLSLTDTHLDGPFGEMHGYVFKSQGHPCPLYTVKAMSYRDNAILPVSNPGLCTDETHTLIGSLVATEAKELAIESGLPILDAFMPYEAQALWLILKVDLKGLQALKTTPEEFCKKVGDIYFRTKVGFIVHEIILVADDIDIFNFKEVIWAYVTRHTPVADQMAFDDVTSFPLAPFVSQSSRSKTMKGGKCVTNCIFRQQYERSFDYITCNFEKGYPKGLVDKVNENWKRYGYK
On to B2, for which, in “purified protein”, the Michaelis constant (Km) worked out at 8.6 ± 1.5 µM and the kcat was found to be 0.92 ± 0.03 s⁻¹.

B3: S. cerevisiae Fdc1 (Saccharomyces cerevisiae S288C; E285D) (protein)
chain: MRKLNPALEFRDFIQVLKDEDDLIEITEEIDPNLEVGAIMRKAYESHLPAPLFKNLKGASKDLFSILGCPAGLRSKEKGDHGRIAHHLGLDPKTTIKEIIDYLLECKEKEPLPPITVPVSSAPCKTHILSEEKIHLQSLPTPYLHVSDGGKYLQTYGMWILQTPDKKWTNWSIARGMVVDDKHITGLVIKPQHIRQIADSWAAIGKANEIPFALCFGVPPAAILVSSMPIPEGVSESDYVGAILGESVPVVKCETNDLMVPATSEMVFEGTLSLTDTHLEGPFGDMHGYVFKSQGHPCPLYTVKAMSYRDNAILPVSNPGLCTDETHTLIGSLVATEAKELAIESGLPILDAFMPYEAQALWLILKVDLKGLQALKTTPEEFCKKVGDIYFRTKVGFIVHEIILVADDIDIFNFKEVIWAYVTRHTPVADQMAFDDVTSFPLAPFVSQSSRSKTMKGGKCVTNCIFRQQYERSFDYITCNFEKGYPKGLVDKVNENWKRYGYK
Consider B3, for which, in the series “purified protein”, the Km came out at 20.4 ± 3.6 µM and the kcat was 0.28 ± 0.01 s⁻¹.

Values taken from PMC5818171, “The role of conserved residues in Fdc decarboxylase in prenylated flavin mononucleotide oxidative maturation, cofactor isomerization, and catalysis” (The Journal of Biological Chemistry, 2017).
